Measurements: the domain aggregation screens of Martell et al. (2025)

Test: soluble fraction after stress (log2 fold change); higher = more stays soluble; pooled small domains, quantitative proteomics
Conditions: stress: 50 degC
Method in brief: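 The stress applied to every library was 50°C. These custom libraries of small protein domains were pooled and measured at high throughput with quantitative proteomics as the read-out. Aggregation propensity is expressed as the base-two logarithm of the fold change in how much of each protein remains soluble. The higher the value, the more of that protein stays in solution.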

In the case of “HMGKKGPELNDNEKIIFNIISKENSMNLDDLKNRTELSNKQWDKAIKGLRSHELVNIEKIDDQLLIHL”, the “soluble fraction (log2)” value is reported as 0.196.

For “HMHDIPDITDLRPLRHTLGLTLAHAAQQLNTTTATISRLERGQHRNDHLATTYRTWLHTHPT”, the “soluble fraction (log2)” value was -0.15.

In the case of “HMPGLDTTILSDILSLKKELPSRSAAKILIMLILAKRIEEGSLNLRTINRILNQYGYTRESLL”, the “soluble fraction (log2)” value is reported as 0.0736.

In the case of “HMELARLRPELDGNDIMRILGVPPGPVVGRAYTYLLELRINQGELGRERVTQLLLDWAAAEGISA”, the “soluble fraction (log2)” value is reported as -2.02.

In the case of “HMREQAHEVAGKLGYPVMVKASAGGGGKGIRIVRTEDELDQAFEAAQSETKAAFGDDQMYMEKVI”, the “soluble fraction (log2)” value is reported as 0.00859.

In the case of “HMPMTDYQLIRSNRRTIALQITRDARVVVRAPLYASEADIRRFVESHRAWIESHLDRQRARTD”, the “soluble fraction (log2)” value is reported as -1.76.

For “HMPLPFSPVMFVGTKSGAQTDLDGNYKIETYYSSDSLKVVVLGYAPLAKKVKQGTTSVVNFELSAAS”, the “soluble fraction (log2)” value was 0.113.

With “HMQNSMTTTPDVVGKTGTFAEQMLKAANLNVQFAGDSSGKVVAQDVEAGTSAAYGTIITLTMDS” the “soluble fraction (log2)” value was 0.14.

In the case of “HMIKIDESTLSEDELKIFEILKIEDKNIENIAIESKILPGKLLATLMNMEMKKIVVQYPGKVFGLNRKLK”, the “soluble fraction (log2)” value is reported as -0.492.

For “HMGALAITPDFVGQTREEAERFLRDLDLSFDIGGKGDRILRQEPVAGQRMNLDQPMKLWVGSMNA”, the “soluble fraction (log2)” value was 0.0609.

In the case of “HMHHDDHNQQEEIKEKLLAMVADGERHHVTEVRQLDEDWDMVTKVMKELMDEEQLLMDGSYLILSA”, the “soluble fraction (log2)” value is reported as -0.0951.

With “HMVAEKSKIEMAIDSINKLAKELADSGVAKKTISDIIKSVSGSANYNKITDFEVATDVYKELVALKNKEDT” the “soluble fraction (log2)” value was 0.384.

For “HMTAVNEHELMNQFKLSLGYANGDDPQTKLSTDEKNDFMRFKEWATAMTKDSKMGKDPDYLKKLAVQWTLK”, the “soluble fraction (log2)” value was 0.214.

For “HMTDGYAMRLERLNSLEEYVLNKGTVSLEDLAERFGVSINTIRRDLNELISRGQIKKVYGGVSSLHD”, the “soluble fraction (log2)” value was 0.0904.

With “HMQVRVERSRDKVVISGVNYYIHPVRKGETVYSIARAYGITTQDLVRENPSAAEGLKEGQSIRIPERLVD” the “soluble fraction (log2)” value was 0.0927.

With “HMESILDDFPGLGAVRRAALLEHFGDIDRLRAASAVEITEVDGFGDVLARELHDFLHRPKPDA” the “soluble fraction (log2)” value was -0.455.

In the case of “HMQEDSNISFVKIHVDADSGMAHKKLSKLSLPTGFLIVVIIRGEENIIPNGETEVLPGDLLVAAAREFEN”, the “soluble fraction (log2)” value is reported as -0.405.

With “HMSDIPEGYMSRVQLGDEWGIHLATFDKAVIAVKEKLGTVVFIDKSNNTTAGYSPEQQTIIYDWLAEN” the “soluble fraction (log2)” value was -1.82.

With “HMGVITVRPPIVVRDFAIALNLKPFQVIGNLMELNKVVSVSSVIEEADARKVAERHGYTLEIRH” the “soluble fraction (log2)” value was -0.516.

With “HMFPTLNEDEQTIVSALQKINDQPINTLSIHTALPIPRLTSLLFQLEIKGVIKQLAGGTYHVL” the “soluble fraction (log2)” value was -0.427.

With “HMQQEAVNLVQSRGQQAIEPVHIMQGVMKVGENVTNFIFQKLGMNGQQVALVVDKQIDSLPKVSGGEPYL” the “soluble fraction (log2)” value was 0.0273.

With “HMSGALDTVVGIRMLKLLSTPIEKSKAFQVGIINKDGKKLRDPTSGERQHYTFLNRFVFKVQYALMRS” the “soluble fraction (log2)” value was -0.211.

For “HMITVPKVINMSETQARQTLDALGLNVTLSATQVMNDKIPYGYVAAQSYSAGKEVPAGTTIELTMSIGL”, the “soluble fraction (log2)” value was -0.945.

With “HMILNPQELGERIRKLRLKRNKTQSYFADMLYISSSYLALIESGKRVPNLDLLIHIAKFTDVTLDYLVFG” the “soluble fraction (log2)” value was -1.22.

With “HMLNDKLQTLFSLFPAVDKDLKKKGVTRQILWEQYKRNHPDGVGRSQFNYYYAQWKDQVNPT” the “soluble fraction (log2)” value was -1.47.

For “HMSMLGTEQRVLVLGPARKGEGFLMARTDNNRIVNFEGPLSLVDTMVRVKVTDVYPHSLGGQLL”, the “soluble fraction (log2)” value was -1.55.

With “HMGQNYTIVKGDSLWKIAQKQYGDGSQWKKIYDANKDAIESAAKKYGKKSSDSGKWIYPGVSLII” the “soluble fraction (log2)” value was 0.0704.

For “HMENAEALLKKLSGVLSDYEYKMLMLYADGKTPRRIAQETGQSAKSVSNALFRARTKLKELYEDQ”, the “soluble fraction (log2)” value was -0.331.

For “HMDYVKTLGETINVRVAASTDADIYKLLPGGEILNRVGYNEEWTKVMVDGSTFYVYSEYVIQTEPPA”, the “soluble fraction (log2)” value was -1.37.

With “HMNNSDIDITVGKNSISINNPNRTNIIIYSSNGMLIDSSKNASYKRNLPSGIYIVKSGSSTHKVIV” the “soluble fraction (log2)” value was -0.148.

In the case of “HMRKTIQDFLSSNKVDIAKLLTLALEKTKEDLYKNLSYNLTNKELEKLKLLIKKREQGIPFAYLS”, the “soluble fraction (log2)” value is reported as -0.0368.

In the case of “HMNTYVLPDALKSQLSVEDTGMLTKQLQALPETLAEGVLDSLSQMLSKNTLQNPVGWMLAVMKRAREGNFN”, the “soluble fraction (log2)” value is reported as -0.00363.

For “HMVVLPGEVVALKIIQTGSSKDQGVGYLEDGTMVVVDGAKNSIGKTIEIQISRSHQTVAGRMLFGIAMS”, the “soluble fraction (log2)” value was -1.24.

For “HMGGPTARQMEVLSLIAQGLPNKRIADELGIAERTVKLHITALLDSLGARNRTHLLVVARERGM”, the “soluble fraction (log2)” value was -2.21.

With “HMANLDSLIKKVGQYAKDKQSISVDGIKKDLSIDKDMVKEALAELLKIGVVDKPDEAGQYKVIM” the “soluble fraction (log2)” value was 0.299.

In the case of “HMAELTTVQAADILHVSRPFLIKLLDEGQIPYHRVGKHRRIRMEDVMNYKRAIDQQREAVLDQLVAEA”, the “soluble fraction (log2)” value is reported as -0.0408.

In the case of “HMQNLISSDEAKNIALQHANLTDNQVTFIKVSKDYDDGIHIYEVEFHYNNREYNYDINAINGTILSYEQ”, the “soluble fraction (log2)” value is reported as -0.574.

In the case of “HMGRRERKKLQSRRAIIEAAVTEFKEKGFREASVADIMTRADLGLGTFYNYFQSKEDILMSLLS”, the “soluble fraction (log2)” value is reported as -0.0676.

With “HMSSKAVLEKFEALFIDQMLQSMRKATVRSELFDSEGIKLYESLFDKEISEELAKSGGLGLTKDLEQQL” the “soluble fraction (log2)” value was -0.888.

In the case of “HMLDGFEVGMTVMKKSGTEIGFTGWPSFADKDELPIIERIDTSDSTLLLKFKDMSWWIKASLVEPS”, the “soluble fraction (log2)” value is reported as -1.62.

For “HMYHNKFADLAGFIAFNEKNEEIFTFGKYKGQNVKEVFQRDIGYYGWLQNADFPLYTKKVFTAIQLRSR”, the “soluble fraction (log2)” value was -2.16.

With “HMGLQDLFLNSLRKSKTPVTMFLVKGVKLQGVVTWFDNFSVLLRRDGMSQLVYKHSISTIMP” the “soluble fraction (log2)” value was -0.0722.

For “HMSELIDSLTEAVRSAPDAVPLRLHLAELLLADGQRDRAFAQLGQVLAKDPQNARALEMLGVGS”, the “soluble fraction (log2)” value was -0.0386.

In the case of “HMEPEVSNTYEKVLGMHHFSSTRSHQLHDLVRQANALELSLGEIESIAQSAKDGAQVISDIKHWMEPNRQ”, the “soluble fraction (log2)” value is reported as 0.266.

In the case of “HMDNWAALLSEREVQVSRLVANGASNKEIADHLAITERTVKAHLTAVFEKLGVRDRLQLSLRVNGL”, the “soluble fraction (log2)” value is reported as -2.01.

For “HMRLLGEPLAGRLKKDVPVVTGRSTESKAIAQFFELRWSHLPDPEARTISVASGRIDFMDVGATRFSLR”, the “soluble fraction (log2)” value was 0.054.

With “HMAPLAVIFPEPWRGMIAPEKLEGLTQALSLNPRPGYQHDPTRRYGVSLDGLDVRFTIDGDTLTVVEVVT” the “soluble fraction (log2)” value was -0.635.

With “HMGSNATIKYAIKGDESLVQVAQKFNVTVSELRSWNNISAFENAKTGQELVINVPASKYETYFALANT” the “soluble fraction (log2)” value was 0.22.

With “HMTGVPYLVRVKITDLHIRSGPGTNYASKGFIAPGAYTIVEESTGQGAALWGKLKSGKGWIALGYTEK” the “soluble fraction (log2)” value was -1.09.

For “HMLLTLPEDIITMVRQGTLSAGHARVLAGLESDEMKMTLARQTITNEWSVRQLENAVALMRKS”, the “soluble fraction (log2)” value was -0.0766.

In the case of “HMDDENKIEVMINEEKVQLTGKDKYVFVDIFNYIDMDLTRIHGNLVLKLNGENASHNSLLKSGDKIEARWE”, the “soluble fraction (log2)” value is reported as -0.181.

With “HMNSSLFLARQVHALRKKAGLTLQQLSRKSDVSVSTLSKIEKGQLSPTYEKIVSLARGLDVPIAALFHE” the “soluble fraction (log2)” value was -0.976.

For “HMLEQISDINILSGYAKEVIAENPKTVSDYLSGKAAAFQALVGQVMKKTGGRGNPVIIQEILKRLIHKK”, the “soluble fraction (log2)” value was 0.116.

For “HMRKMELTEAAEKLIEEPDVVSAYRNMQQIFQQWREIGPVPREQRDEVWSHFKDLMTQVNRRHQAHFEN”, the “soluble fraction (log2)” value was -0.0451.

In the case of “HMVHSEDLQDHKYVSQLGEVFLKENPNYENIKKSWGDHMVVIKKFGRYPHRNKILNRKSTPEELEFLKG”, the “soluble fraction (log2)” value is reported as -0.0131.

In the case of “HMRMQRYYLTDMSEKGREALPGVLDEMGYAGRYTMSDNSIAINSNMIVLSKAIKRAEDIAHNE”, the “soluble fraction (log2)” value is reported as -0.086.

In the case of “HMNGVFIMHTPDGKVLRTEEGEEAVITLFNWSGQLLWSKTSLGQLPLPEGTQGVLQVQYKSGDQHTIKT”, the “soluble fraction (log2)” value is reported as -0.267.

With “HMHKAVVGPPNARKLAVTYGFKRWPALVFFRDGKYLGAVDGLRLWADLVREADEIMHSEPHYP” the “soluble fraction (log2)” value was -0.166.

In the case of “HMPAEEVPLYKAVVVTTPPNRLRVRFSPAGDFKRWLQSGEEVDVYQELGDWRRIEPNGWSSAEWLQRVG”, the “soluble fraction (log2)” value is reported as -0.157.

In the case of “HMEGVTVPDVTRISLDEAEELLTSYGLRFEVADRRANSAFPGNYVIDQAPSAEVIVKPNRKIYLTVNAA”, the “soluble fraction (log2)” value is reported as -0.134.

For “HMSALAEELIKKNQAMILTIKPRDTIWGIANRFQSPPSEKFINQIIELNQVDPYRLRIGQDLLIPLN”, the “soluble fraction (log2)” value was -0.584.

For “HMINFSKNIISDTTSIKEAIEILNIISGRDNHILFVLNDKRQLIGTLSDGDVRRGMLASKTISQSVTEVM”, the “soluble fraction (log2)” value was -0.351.

In the case of “HMNVPATAEAYEALLADAESVGKSLWGHEAKRFAAEQALLSAGLREVIQVDPDKARELALRLRGLLDEYRG”, the “soluble fraction (log2)” value is reported as 0.13.

With “HMAATGPLTPREAEIARLAAGHLSNRQIAEQLVVSERTVENHLYRIFIKLAVTGRDDLAAALAATEQ” the “soluble fraction (log2)” value was -0.689.

In the case of “HMALPPPELRGATGEAVTALRPAGIALIQGKRYDVLAEGGEWIAAGAAVRVRDIRNGHLIVSDA”, the “soluble fraction (log2)” value is reported as 0.00767.

For “HMTKTEFLNLLEQRLFVLNDNERADLLSEYKQHIEMKIQSGLSEEEAIADFGDPEELIKELLEAY”, the “soluble fraction (log2)” value was -0.33.

With “HMGPNPLTEREQEILQLARTGEPVARLAKRLFLSPGTVRNHLSSAIGKLGAANRVEAAQFATERGW” the “soluble fraction (log2)” value was 0.0816.

In the case of “HMFDFLELGQAIQDAREKQRITREELAEELGISARHLQSVEKEGQYPSFRLFIQLVTMFHISVDQYI”, the “soluble fraction (log2)” value is reported as -0.0829.

In the case of “HMRENAARNRNVNLDIGETLRVDAWSPERRARVQYRGAAWDVELAPNAPATVGEFRIVEVRGNVLVVTP”, the “soluble fraction (log2)” value is reported as 0.0231.
